Biological target: ASC^(H118A,F136A,W169A,K174A, L177A-L178A,L192A) (ASC-YFP binding site mutant) (UniProt Q9ULZ3)
Experiment: flow cytometry of ASC-YFP speck formation in transfected HEK293 cells
Conditions: parent: est. 37, read off a plot

ASC-YFP, sequence (Q9ULZ3 whole entry H118A/F163A/W169A/K174A/L177A/L178A/L192A, change not shown): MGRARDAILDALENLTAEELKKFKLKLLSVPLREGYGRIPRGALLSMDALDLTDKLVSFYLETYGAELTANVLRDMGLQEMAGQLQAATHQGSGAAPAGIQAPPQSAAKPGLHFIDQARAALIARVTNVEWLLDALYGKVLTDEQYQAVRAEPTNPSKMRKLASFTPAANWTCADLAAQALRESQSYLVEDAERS

other: ASC specks (%): 13%
Substance: ASC-YFP (from UniProt Q9ULZ3) H118A; F136A; W169A; K174A; L177A; L178A; L192A

From publication PMC8667020
